This assay deals with alpha-subunit of the stimulatory G protein (Gs), mouse (mouse, UniProt P63094). The assay can be described thus: cell-based or functional assay.

B1: Cholera toxin from Vibrio Cholerae (other)
chain: NDDKLYRADSRPPDEIKQSGGLMPRGQSEYFDRGTQMNINLYDHARGTQTGFVRHDDGYVSTSISLRSAHLVGQTILSGHSTYYIYVIATAPNMFNVNDVLGAYSPHPDEQEVSALGGIPYSQIYGWYRVHFGVLDEQLHRNRGYRDRYYSNLDIAPAADGYGLAGFPPEHRAWREEPWIHHAPPGCGNAPRSSMSNTCDEKTQSLGVKFLDEYQSKVKRQIFSGYQSDIDTHNRIKDEL
As for B1, the “cAMP, fold induction over vehicle, adult mouse neural stem cells” value is 3.1 fold induction.

(Values after US20050009847A1, “Compounds and methods for increasing neurogenesis” (published 2005).)
